Test results taken from patent US20240118272A1.

Experiments:
[1] = biological target: CD9(FL)-ALP conjugate (human; bovine); experiment: HI-1000 capture immunoassay; calibrator C5, 43.86 mU/L; run 1
[2] = biological target: CD9(ECD)-ALP conjugate (human; bovine); experiment: HI-1000 capture immunoassay; secondary calibrator C2, 3.84 U/L; mean of 3
[3] = biological target: CD9(FL)-ALP conjugate (human; bovine); experiment: HI-1000 capture immunoassay; calibrator C3, 7.4 ng/mL; mean of 3
[4] = biological target: CD9(ECD)-ALP conjugate (human; bovine); experiment: HI-1000 capture immunoassay; primary calibrator C5, 159.87 ng/mL; mean of 3
[5] = biological target: CD9(ECD)-ALP conjugate (human; bovine); experiment: HI-1000 capture immunoassay; secondary calibrator C4, 129.62 U/L; run 1
[6] = biological target: CD9(ECD)-ALP conjugate (human; bovine); experiment: HI-1000 capture immunoassay; thawed aliquot 1 of secondary calibrator C5
[7] = biological target: CD9(ECD)-ALP conjugate (human; bovine); experiment: HI-1000 capture immunoassay; primary calibrator C5, 159.87 ng/mL; run 2
[8] = biological target: CD9(FL)-ALP conjugate (human; bovine); experiment: HI-1000 capture immunoassay; calibrator C5, 30 ng/mL; run 3
[9] = biological target: CD9(ECD)-ALP conjugate (human; bovine); experiment: HI-1000 capture immunoassay; secondary calibrator C4, 129.62 U/L; run 3
[10] = biological target: CD9(FL)-ALP conjugate (human; bovine); experiment: HI-1000 capture immunoassay; calibrator C3, 7.4 ng/mL; run 1
[11] = biological target: CD9(ECD)-ALP conjugate (human; bovine); experiment: HI-1000 capture immunoassay; secondary calibrator C4, 129.62 U/L; mean of 3
[12] = biological target: CD9(FL)-ALP conjugate (human; bovine); experiment: HI-1000 capture immunoassay; calibrator C5, 43.86 mU/L; run 3
[13] = biological target: CD9(FL)-ALP conjugate (human; bovine); experiment: HI-1000 capture immunoassay; calibrator C3, 10.96 mU/L; run 3
[14] = biological target: CD9(FL)-ALP conjugate (human; bovine); experiment: HI-1000 capture immunoassay; calibrator C1, 1.0 ng/mL; run 1
[15] = biological target: CD9(ECD)-ALP conjugate (human; bovine); experiment: HI-1000 capture immunoassay; primary calibrator C2, 4.89 ng/mL; run 2
[16] = biological target: CD9(FL)-ALP conjugate (human; bovine); experiment: HI-1000 capture immunoassay; calibrator C1, 1.0 ng/mL; run 3
[17] = biological target: CD9(FL)-ALP conjugate (human; bovine); experiment: HI-1000 capture immunoassay; calibrator C4, 21.93 mU/L; run 2
[18] = biological target: CD9(ECD)-ALP conjugate (human; bovine); experiment: HI-1000 capture immunoassay; secondary calibrator C4; mean of 3 aliquots
[19] = biological target: CD9(ECD)-ALP conjugate (human; bovine); experiment: HI-1000 capture immunoassay; thawed aliquot 2 of secondary calibrator C3
[20] = biological target: CD9(FL)-ALP conjugate (human; bovine); experiment: HI-1000 capture immunoassay; calibrator C4, 15 ng/mL; mean of 3
[21] = biological target: CD9(ECD)-ALP conjugate (human; bovine); experiment: HI-1000 capture immunoassay; secondary calibrator C3, 14.32 U/L; mean of 3
[22] = biological target: CD9(ECD)-ALP conjugate (human; bovine); experiment: HI-1000 capture immunoassay; secondary calibrator C1, 1.02 U/L; mean of 3
[23] = biological target: CD9(ECD)-ALP conjugate (human; bovine); experiment: HI-1000 capture immunoassay; secondary calibrator C2, 3.84 U/L; run 3
[24] = biological target: CD9(ECD)-ALP conjugate (human; bovine); experiment: HI-1000 capture immunoassay; secondary calibrator C3; mean of 3 aliquots
[25] = biological target: CD9(ECD)-ALP conjugate (human; bovine); experiment: HI-1000 capture immunoassay; secondary calibrator C2, 3.84 U/L; run 1
[26] = biological target: CD9(ECD)-ALP conjugate (human; bovine); experiment: HI-1000 capture immunoassay; thawed aliquot 3 of secondary calibrator C4
[27] = biological target: CD9(FL)-ALP conjugate (human; bovine); experiment: HI-1000 capture immunoassay; calibrator C4, 15 ng/mL; run 1
[28] = biological target: CD9(ECD)-ALP conjugate (human; bovine); experiment: HI-1000 capture immunoassay; primary calibrator C5, 159.87 ng/mL; run 3
[29] = biological target: CD9(ECD)-ALP conjugate (human; bovine); experiment: HI-1000 capture immunoassay; thawed aliquot 1 of secondary calibrator C3
[30] = biological target: CD9(ECD)-ALP conjugate (human; bovine); experiment: HI-1000 capture immunoassay; primary calibrator C4, 50.05 ng/mL; run 2
[31] = biological target: CD9(FL)-ALP conjugate (human; bovine); experiment: HI-1000 capture immunoassay; calibrator C3, 10.96 mU/L; run 1
[32] = biological target: CD9(FL)-ALP conjugate (human; bovine); experiment: HI-1000 capture immunoassay; calibrator C2, 3.7 ng/mL; run 1
[33] = biological target: CD9(ECD)-ALP conjugate (human; bovine); experiment: HI-1000 capture immunoassay; secondary calibrator C2; mean of 3 aliquots
[34] = biological target: CD9(ECD)-ALP conjugate (human; bovine); experiment: HI-1000 capture immunoassay; primary calibrator C2, 4.89 ng/mL; mean of 3
[35] = biological target: CD9(FL)-ALP conjugate (human; bovine); experiment: HI-1000 capture immunoassay; calibrator C3, 7.4 ng/mL; run 3
[36] = biological target: CD9(ECD)-ALP conjugate (human; bovine); experiment: HI-1000 capture immunoassay; thawed aliquot 1 of secondary calibrator C1
[37] = biological target: CD9(ECD)-ALP conjugate (human; bovine); experiment: HI-1000 capture immunoassay; thawed aliquot 3 of secondary calibrator C3
[38] = biological target: CD9(ECD)-ALP conjugate (human; bovine); experiment: HI-1000 capture immunoassay; secondary calibrator C5; mean of 3 aliquots
[39] = biological target: CD9(ECD)-ALP conjugate (human; bovine); experiment: HI-1000 capture immunoassay; secondary calibrator C2, 3.84 U/L; run 2
[40] = biological target: CD9(FL)-ALP conjugate (human; bovine); experiment: HI-1000 capture immunoassay; calibrator C4, 21.93 mU/L; mean of 3

Chain of CD9(FL)-ALP conjugate (human; bovine) (chain, as listed by the source, chain 1 of 2): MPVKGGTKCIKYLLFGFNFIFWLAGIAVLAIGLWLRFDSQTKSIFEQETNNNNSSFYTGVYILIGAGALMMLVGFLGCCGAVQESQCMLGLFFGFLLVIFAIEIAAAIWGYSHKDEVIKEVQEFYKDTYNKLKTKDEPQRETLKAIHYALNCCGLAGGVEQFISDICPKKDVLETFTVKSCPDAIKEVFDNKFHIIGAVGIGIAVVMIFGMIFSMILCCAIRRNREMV
Chain of CD9(FL)-ALP conjugate (human; bovine) (P19111 20-506, chain 2 of 2): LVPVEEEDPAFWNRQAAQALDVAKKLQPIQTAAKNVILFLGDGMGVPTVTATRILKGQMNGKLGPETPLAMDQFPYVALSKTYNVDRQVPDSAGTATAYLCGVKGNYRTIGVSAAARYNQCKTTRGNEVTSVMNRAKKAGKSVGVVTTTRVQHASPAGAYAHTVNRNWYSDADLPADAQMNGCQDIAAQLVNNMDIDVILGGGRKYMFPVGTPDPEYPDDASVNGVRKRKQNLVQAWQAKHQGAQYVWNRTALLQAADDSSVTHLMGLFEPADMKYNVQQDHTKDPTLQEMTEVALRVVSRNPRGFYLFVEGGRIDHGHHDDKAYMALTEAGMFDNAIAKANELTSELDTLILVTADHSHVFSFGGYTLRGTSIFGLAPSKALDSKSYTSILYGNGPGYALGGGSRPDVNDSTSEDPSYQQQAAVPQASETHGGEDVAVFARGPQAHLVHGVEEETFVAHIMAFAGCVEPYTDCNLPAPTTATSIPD
Chain of CD9(ECD)-ALP conjugate (human; bovine) (chain, as listed by the source, chain 1 of 2): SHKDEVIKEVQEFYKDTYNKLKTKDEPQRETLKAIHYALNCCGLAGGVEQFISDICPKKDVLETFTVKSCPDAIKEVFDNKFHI
Chain of CD9(ECD)-ALP conjugate (human; bovine) (P19111 20-506, chain 2 of 2): as the sequence (P19111 20-506, chain 2 of 2) above

## anti-CD9 antibody (Clone: H19a)
[1]
  Count value: 25800 count
[2]
  Count value (av): 2390 count
[3]
  Count value (av): 7020 count
[4]
  Count value (av): 69800 count
[5]
  Count value: 71000 count
[6]
  Count value: 36500 count
[7]
  Count value: 67600 count
[8]
  Count value: 26100 count
[9]
  Count value: 69500 count
[10]
  Count value: 7040 count
[11]
  Count value (av): 70000 count
[12]
  Count value: 27800 count
[13]
  Count value: 6810 count
[14]
  Count value: 1420 count
[15]
  Count value: 2520 count
[16]
  Count value: 1470 count
[17]
  Count value: 13200 count
[18]
  Count value (av): 11600 count
[19]
  Count value: 4080 count
[20]
  Count value (av): 13500 count
[21]
  Count value (av): 8090 count
[22]
  Count value (av): 941 count
[23]
  Count value: 2450 count
[24]
  Count value (av): 3900 count
[25]
  Count value: 2420 count
[26]
  Count value: 11400 count
[27]
  Count value: 13000 count
[28]
  Count value: 71600 count
[29]
  Count value: 3830 count
[30]
  Count value: 21800 count
[31]
  Count value: 6330 count
[32]
  Count value: 5360 count
[33]
  Count value (av): 1560 count
[34]
  Count value (av): 2560 count
[35]
  Count value: 7010 count
[36]
  Count value: 818 count
[37]
  Count value: 3800 count
[38]
  Count value (av): 36300 count
[39]
  Count value: 2300 count
[40]
  Count value (av): 13300 count
